Experimental data published in publication PMC12479363 (Nature Immunology, 2025).

Target: SK56
Assay: MST

Kd: ~220 nM
B1: GSDMC-NT–GFP (domain or fragment)
chain: MPSMLERISKNLVKEIGSKDLTPVKYLLSATKLRQFVILRKKKDSRSSFWEQSDYVPVEFSLNDILEPSSSVLETVVTGPFHFSDIMIQKHKADMGVNVGIEVSVSGEASVDHGCSLEFQIVTIPSPNLEDFQKRKLLDPEPSFLKECRRRGDNLYVVTEAVELINNTVLYDSSSVNILGKIALWITYGKGQGQGESLRVKKKALTLQKGMVMAYKRKQLVIKEKAILISDDDEQRTFQD
